Patent US20260158064A1 (NANJING PROBIO BIOTECH, published 2026)
Residue numbers refer to the chain shown, from its start.

B1: single domain antibody AHP15776 (Fc fusion)
chain: QVQLVESGGGLVQPGGSLTLSCAASQSISSIYLLGWYRQAPGKERESVARITTSGTTTYIADSVKGRFTLSRDNAKNTMYLQMNSLKPEDTAVYYCNVPFLVATARGNAYWGQGTQVTVSS
notes: VHH expressed from pcDNA3.4-Fc (HuIgG1); not shown: human IgG1 Fc of the pcDNA3.4-Fc (HuIgG1) expression vector
B2: single domain antibody AHP15547 (Fc fusion)
chain: AVQLVDSGGGSVQPGESLTLSCTGSARFLSNYGMGWYRQFPGKMREMVAYETNRGNKRYAESVKGRFRIARDAAKTTVYLEMNSLKPEDTAVYYCNAESSGWGRRNYWGQGTQVTVSS
notes: as for B1
B3: humanized single domain antibody AHP15662-VHH4 (Fc fusion)
chain: EVQLVESGGGLVQPGGSLRLSCAASGSISRFYAVGWYRQAPGKQRELVARISSGGSTYYADSVKGRFTISIDNSKNTLYLQMNSLRAEDTAVYYCNARNLWGQGTLVTVSS
notes: Humanized VHH expressed from pcDNA3.4-Fc (Human IgG1); not shown: human IgG1 Fc of the pcDNA3.4-Fc (Human IgG1) expression vector
B4: single domain antibody AHP15662 (Fc fusion)
chain: B3 chain with S17T, D72N, L78V, S84N, R86K, A87P, L106Q
notes: VHH expressed from pcDNA3.4-Fc (HuIgG1); also called AHP15662-VHH; not shown: human IgG1 Fc of the pcDNA3.4-Fc (HuIgG1) expression vector
B5: single domain antibody AHP15768 (Fc fusion)
chain: QVQLVESGGGSVQAGGSLRLSCAVSGRSISLYNMGWFRQAPGKEREFVSAINWSGGRTYYADSVKGRFTISRNNAKNTMYLQMNSLKPEDTATYYCAVDVEGWFRVSGDAAGYDYWGQGTQVTVSS
notes: as for B1
B6: single domain antibody AHP15773 (Fc fusion)
chain: EVQLVESGGGLVQPGGSLRLSCLASGSDFSDSAMGWYRQAPGKQREFVAAIGAGGITTYADSVKGRFTISRDSAKNIVYLQMSSLSPEDTAVYFCNFAPGWYPPGYQYWGQGTQVTVSS
notes: VHH expressed from pcDNA3.4-Fc (HuIgG1); also called AHP15773-VHH; not shown: human IgG1 Fc of the pcDNA3.4-Fc (HuIgG1) expression vector
B7: humanized single domain antibody AHP15773-VHH4 (Fc fusion)
chain: B6 chain with L23A, S73N, I77T, V78L, S83N, S86R, P87A, Q114L
notes: as for B3
B8: single domain antibody AHP15580 (Fc fusion)
chain: QVQLVESGGGVVQPGGSLRLSCAASGFVLRVNTVSWYRQAPGKQRELVALITSESNEYYDDSVKGRFTISRDNAKNTIYLHMNSLKPEDTGVYFCNFITTWGQGTQVTVSS
notes: as for B1
B9: single domain antibody AHP16026 (Fc fusion)
chain: QVQLVESGGGLVQPGGSLRLSCAVLGSIEQINDINYYRWYRQPPGKQRDLVASINNSGELIYADSVKGRFFISRDKYTVYLEMRSLKAEDTAVYYCNAQDRGEYWGRGTQVTVSS
notes: as for B1
B10: single domain antibody AHP15485 (Fc fusion)
chain: EVQLVESGGGLAQAGGSLSLSCTASGRSFSNFQMGWFRQAPGKEREFVAASGWSGGPTYYADSVKGRFTISTDDSKKTMYLQMNSLKPEDTAAYYCYEDRVLSGRPVRYWGRGTQVTVSS
notes: Alpaca VHH expressed from pcDNA3.4-Fc (HuIgG1) in HEK293-6E; also called AHP15485-VHH; not shown: human IgG1 Fc of the pcDNA3.4-Fc (HuIgG1) expression vector
B11: humanized single domain antibody AHP15485-VHH4 (Fc fusion)
chain: EVQLVESGGGLVQPGGSLRLSCAASGRSFSNFQMGWFRQAPGKEREFVAASGWSGGPTYYADSVKGRFTISTDNSKNTLYLQMNSLRAEDTAVYYCYEDRVLSGRPVRYWGQGTLVTVSS
notes: as for B3

Columns and labels:
[1] = target: human ROR1 expressed on CHO cells (CHO-K1/Human ROR1 stable cells) (human) (UniProt Q01973); assay: flow cytometry, 10 ug/ml antibody on Human ROR1-CHO-K1 cells (curve 1), fluorescent secondary antibody
[2] = target: mouse ROR1 expressed on CHO cells (CHO-K1/Mouse ROR1 stable cells) (mouse) (UniProt Q9Z139); assay: flow cytometry, 10 ug/ml antibody on Mouse ROR1-CHO-K1 cells (curve 2), fluorescent secondary antibody
[3] = target: T1, human ROR1-His protein (fused with a His protein tag, Acrobiosystems, RO1-H522y) (human, UniProt Q01973 30-403); assay: indirect ELISA, antigen coated at 1 ug/ml
T1 construct: also called recombinant human ROR1-His protein; not shown: His tag
Description: (§1) Indirect ELISA was used to assess the binding capability of the above purified antibodies to human ROR1-related recombinant proteins. ELISA plates (Nunc) were coated with 1 μg/ml of human ROR1-His protein, human ROR1 Frizzled-His domain protein, and human ROR1 Kringle-His domain protein in 100 μl/well of CBS overnight at 4° C. The plates were washed with PBS-T (0.05% Tween) and blocked with 300 μl/well of PBS containing 3% skim milk at 37° C. for 1 hour. Subsequently, the blocking solution was discarded, and 100 μl of purified antibody at 8 μg/ml (about 100 nM) was added to the first well and diluted according to a 3-fold gradient to obtain a total of 11 test concentration gradients. The plates were then incubated for 1 hour at room temperature. The plates were washed 3 times with PBST and incubated with 100 μl/well of horseradish peroxidase-conjugated mouse anti-human IgG Fc fragment (GenScript) for 0.5 hours at 37° C. The plates were washed five times with PBST, a TMB chromogenic solution (GenScript) was then added, and the plates were incubated for 15 minutes at room temperature in the dark. The reaction was stopped by adding 50 μl of 1 M HCl stop solution (Sigma). The plates were read at 450 nm using a microplate reader. FIGS. 1-3 show the results of the ELISA experiment on the binding of 8 positive recombinant antibody clones to ROR1-related antigen proteins, and the EC₅₀ for each antibody is as shown in Table 2 below: the antigen binding capacity of the antibodies tested was all equal to or higher than that of the positive reference antibody R11-scFv.

[4] = target: T2, human ROR1 Frizzled-His domain protein (amino acid sequence at positions 165-305, Acrobiosystems, RO1-H5222) (human, UniProt Q01973 165-305); assay: indirect ELISA, antigen coated at 1 ug/ml
T2 construct: also called Human ROR1 Frizzled-His protein; not shown: His tag
Description: as §1

[5] = target: T3, mouse ROR1 expressed on CHO cells (CHO-K1/Mouse ROR1 stable cells) (mouse, UniProt Q9Z139 30-937); assay: flow cytometry, antibody at 10 ug/ml on CHO cells
T3 construct: whole, on cells
Description: (§2) CHO cells expressing human and mouse ROR1 and parental cells as the negative control for detection were collected and washed 3 times with PBS. 2.5×10⁵ test cells and 100 μl of purified antibody at 10 μg/ml were added to a 96-well plate, and the plate was incubated at 4° C. for 1 hour. The cells were then washed 3 times with PBS, 100 μl of iFluor-labeled goat anti-human IgG, an Fcγ-specific fragment antibody, was added, and the plate was incubated at 4° C. for 45 minutes. Finally, the cells were washed 3 times with PBS, and the signals were read using FACS BD Calibur.

[6] = target: T2, human ROR1 Frizzled-His domain protein …; assay: SPR Biacore T200, antibody Fc-captured, antigen as analyte
Description: (§3) The affinity of purified antibodies for human ROR1-related proteins was determined separately using the surface plasmon resonance (SPR) biosensor Biacore T200 (GE Healthcare). The antibodies were immobilized on the sensor chip by the Fc capture method. Human ROR1-related proteins were used as analytes. Data for dissociation (kd) and association (ka) rate constants were obtained using the Biacore T200 evaluation software. The equilibrium dissociation constant (KD) was calculated from the ratio of kd to ka.

[7] = target: T2, human ROR1 Frizzled-His domain protein …; assay: SPR Biacore T200, method as Example 6 (antibody Fc-captured, antigen as analyte)
Description: as §3
(§4) According to the mutation status of the improved clones in the precise saturation mutation library, the combinatorial mutations and the relevant primers for library construction for the second round were designed. The combinatorial mutation library construction was performed still using the prokaryotic soluble expression plasmid of the humanized single domain antibody as the template. The subsequent screening process was the same as that for the precise saturation mutation library. Finally, the top 5 or 7 clones ranked by the improvement fold in affinity were selected for recombinant verification. 5 clones with improved affinity (AHF22016, AHF22018, AHF22013, AHP15485-VHH4-Variant1, and AHP15485-VHH4-Variant2) were obtained from the humanized antibody AHP15485 through affinity maturation screening, and were subjected to eukaryotic expression and purification, as well as subsequent affinity detection at various concentrations. 7 clones (AHP15662-VHH4-Variant1, AHP15662-VHH4-Variant2, AHP15662-VHH4-Variant3, AHF21711, AHF21719, AHF21720, and AHF21721) were obtained from AHP15662-VHH4.

[8] = target: T4, human ROR1 expressed on CHO cells (CHO-K1/Human ROR1 stable cells) (human, UniProt Q01973 30-937); assay: flow cytometry, 10 ug/ml antibody on Human ROR1-CHO-K1 cells (curve 1), fluorescent secondary antibody
T4 construct: whole, on cells; also called CHO-K1/ROR1/Luc (Nanjing Probio, Cat #RD00949)
Description: as §2

[9] = target: T3, mouse ROR1 expressed on CHO cells …; assay: flow cytometry, 10 ug/ml antibody on Mouse ROR1-CHO-K1 cells (curve 2), fluorescent secondary antibody
Description: as §2

[10] = target: human ROR1 Frizzled-His domain protein (amino acid sequence at positions 165-305, Acrobiosystems, RO1-H5222) (human) (UniProt Q01973); assay: indirect ELISA, plate coated with human ROR1 Frizzled-His, HRP anti-human IgG Fc, OD450
[11] = target: T1, human ROR1-His protein (fused with a …); assay: SPR Biacore T200, antibody Fc-captured, antigen as analyte
Description: as §3

[12] = target: T5, human ROR1 Kringle-His domain protein (amino acid sequence at positions 308-395, Acrobiosystems, RO1-H5223) (human, UniProt Q01973 308-395); assay: indirect ELISA, antigen coated at 1 ug/ml
T5 construct: also called Human ROR1 Kringle-His protein; recombinant human ROR1 Kringle-His protein; not shown: His tag
Description: as §1

[13] = target: T1, human ROR1-His protein (fused with a …); assay: SPR Biacore T200, method as Example 6 (antibody Fc-captured, antigen as analyte)
Description: as §3, §4

T3 sequence (Q9Z139 30-937): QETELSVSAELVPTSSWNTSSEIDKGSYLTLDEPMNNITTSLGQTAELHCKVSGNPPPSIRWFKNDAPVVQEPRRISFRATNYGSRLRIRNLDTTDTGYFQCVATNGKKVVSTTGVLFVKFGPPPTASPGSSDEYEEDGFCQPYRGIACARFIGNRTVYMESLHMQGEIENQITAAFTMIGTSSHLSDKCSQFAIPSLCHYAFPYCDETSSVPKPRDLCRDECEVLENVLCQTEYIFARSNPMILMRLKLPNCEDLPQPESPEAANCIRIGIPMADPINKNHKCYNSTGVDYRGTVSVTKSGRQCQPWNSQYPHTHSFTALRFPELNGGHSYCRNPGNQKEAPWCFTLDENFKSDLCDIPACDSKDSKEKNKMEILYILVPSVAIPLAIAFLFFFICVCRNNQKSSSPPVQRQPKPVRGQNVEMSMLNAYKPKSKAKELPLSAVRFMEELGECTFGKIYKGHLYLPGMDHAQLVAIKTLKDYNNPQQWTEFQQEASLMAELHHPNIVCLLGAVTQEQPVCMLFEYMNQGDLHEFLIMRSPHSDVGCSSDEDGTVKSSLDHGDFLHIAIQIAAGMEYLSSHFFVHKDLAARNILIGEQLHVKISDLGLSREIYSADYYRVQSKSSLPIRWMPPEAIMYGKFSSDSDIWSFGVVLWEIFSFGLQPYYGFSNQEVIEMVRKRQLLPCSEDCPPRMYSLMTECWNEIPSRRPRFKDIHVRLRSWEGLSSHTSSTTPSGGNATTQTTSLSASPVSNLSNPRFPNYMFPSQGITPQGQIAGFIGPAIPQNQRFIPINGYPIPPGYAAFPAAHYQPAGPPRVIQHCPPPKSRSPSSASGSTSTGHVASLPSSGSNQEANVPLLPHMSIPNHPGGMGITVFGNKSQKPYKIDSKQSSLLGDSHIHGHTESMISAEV
T4 sequence (Q01973 30-937): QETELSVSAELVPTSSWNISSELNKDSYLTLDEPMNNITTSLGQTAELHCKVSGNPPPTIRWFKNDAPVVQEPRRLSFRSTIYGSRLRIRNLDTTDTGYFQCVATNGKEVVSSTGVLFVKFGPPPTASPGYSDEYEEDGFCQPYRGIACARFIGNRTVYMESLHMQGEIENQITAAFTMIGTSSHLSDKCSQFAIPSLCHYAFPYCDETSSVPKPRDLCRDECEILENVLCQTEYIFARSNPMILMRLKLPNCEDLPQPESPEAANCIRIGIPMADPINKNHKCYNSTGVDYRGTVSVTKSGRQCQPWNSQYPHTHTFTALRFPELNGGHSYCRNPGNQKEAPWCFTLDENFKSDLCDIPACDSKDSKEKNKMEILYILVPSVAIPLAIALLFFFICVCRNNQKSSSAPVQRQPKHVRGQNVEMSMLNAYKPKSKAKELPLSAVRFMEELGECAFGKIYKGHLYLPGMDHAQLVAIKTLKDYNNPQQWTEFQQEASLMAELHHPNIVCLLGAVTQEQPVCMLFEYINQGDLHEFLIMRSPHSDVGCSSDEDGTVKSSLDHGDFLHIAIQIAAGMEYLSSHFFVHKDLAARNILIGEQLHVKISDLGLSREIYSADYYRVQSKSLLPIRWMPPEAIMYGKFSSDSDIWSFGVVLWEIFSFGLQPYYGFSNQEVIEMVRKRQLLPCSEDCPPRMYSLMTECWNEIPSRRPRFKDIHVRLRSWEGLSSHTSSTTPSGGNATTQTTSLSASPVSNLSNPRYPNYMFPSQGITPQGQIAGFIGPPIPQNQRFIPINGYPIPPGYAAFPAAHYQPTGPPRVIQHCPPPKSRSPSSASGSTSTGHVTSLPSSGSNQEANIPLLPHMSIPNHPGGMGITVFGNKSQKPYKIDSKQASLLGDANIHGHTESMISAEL
T2 sequence (Q01973 165-305 limits assumed, form in doubt): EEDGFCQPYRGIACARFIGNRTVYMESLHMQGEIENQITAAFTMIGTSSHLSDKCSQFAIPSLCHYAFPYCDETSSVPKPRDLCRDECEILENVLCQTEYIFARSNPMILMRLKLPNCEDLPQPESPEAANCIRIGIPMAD
T1 sequence (Q01973 30-403 limits assumed): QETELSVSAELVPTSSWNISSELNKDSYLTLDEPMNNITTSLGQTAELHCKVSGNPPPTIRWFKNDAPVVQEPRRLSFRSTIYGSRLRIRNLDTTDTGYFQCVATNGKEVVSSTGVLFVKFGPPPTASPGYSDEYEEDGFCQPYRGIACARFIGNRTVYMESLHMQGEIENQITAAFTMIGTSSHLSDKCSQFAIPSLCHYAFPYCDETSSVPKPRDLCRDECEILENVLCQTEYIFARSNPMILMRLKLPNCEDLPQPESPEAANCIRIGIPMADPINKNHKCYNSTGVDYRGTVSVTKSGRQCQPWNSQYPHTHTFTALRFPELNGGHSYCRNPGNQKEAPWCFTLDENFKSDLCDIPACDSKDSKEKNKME
Sequence of human ROR1 Frizzled-His domain protein (amino acid sequence at positions 165-305, Acrobiosystems, RO1-H5222) (human) (Q01973 165-305 limits assumed, form in doubt): as the sequence (Q01973 165-305 limits assumed, form in doubt) above
T5 sequence (Q01973 308-395 limits assumed, form in doubt): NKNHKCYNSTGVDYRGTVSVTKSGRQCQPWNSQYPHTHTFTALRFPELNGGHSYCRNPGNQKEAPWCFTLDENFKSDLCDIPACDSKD
Sequence of mouse ROR1 expressed on CHO cells (CHO-K1/Mouse ROR1 stable cells) (mouse) (Q9Z139 30-937): as the sequence (Q9Z139 30-937) above
Sequence of human ROR1 expressed on CHO cells (CHO-K1/Human ROR1 stable cells) (human) (Q01973 30-937): as the sequence (Q01973 30-937) above

Row | Molecule | EC50 [3] [mg/L] | binding result [5] | Geometric Mean : Alexa Fluor 647-H [8] | Geometric Mean : Alexa Fluor 647-H [9] | Kd [11] [µM] | koff [11] [s⁻¹] | kon [11] [M⁻¹ s⁻¹] | further results
1 | Positive Ab- Cirmtuzumab (antibody) |  |  |  |  |  |  |  | Geometric Mean : Alexa Fluor 647-H [1]: 69000; Geometric Mean : Alexa Fluor 647-H [2]: 32600
2 | B1 | 0.0109 | binds |  |  |  |  |  | EC50 [4]: 0.023 mg/L
3 | B2 | 0.0105 | binds |  |  |  |  |  | EC50 [4]: 0.0165 mg/L
4 | B3 |  |  | 55400 | 52800 |  |  |  | Kd [6]: 0.247 µM; koff [6]: 0.111 s⁻¹; kon [6]: 449000 M⁻¹ s⁻¹; Kd [7]: 0.294 µM; koff [7]: 0.103 s⁻¹; kon [7]: 350000 M⁻¹ s⁻¹
5 | B4 | 0.0105 |  | 56400 | 75600 |  |  |  | EC50 [4]: 0.0105 mg/L; Kd [6]: 0.55 µM; koff [6]: 0.19 s⁻¹; kon [6]: 345000 M⁻¹ s⁻¹
6 | B5 | 0.0203 | binds |  |  |  |  |  | EC50 (read off the curve) [10]: 0.1 mg/L
7 | B6 | 0.0155 |  | 33400 | 54900 | 0.757 | 0.117 | 155000 | EC50 (read off the curve) [10]: 0.07 mg/L
8 | B7 |  |  | 28700 | 48500 | 0.319 | 0.0587 | 184000 | 
9 | B8 | 0.0407 | binds |  |  |  |  |  | EC50 [12]: 0.0294 mg/L
10 | B9 |  |  |  |  |  |  |  | EC50 [12]: 1.91 mg/L
11 | B10 | 0.0061 |  | 61400 | 31400 | 0.28 | 0.063 | 225000 | 
12 | B11 |  |  | 38500 | 8630 | 0.32 | 0.0686 | 214000 | Kd [13]: 0.29 µM; koff [13]: 0.0547 s⁻¹; kon [13]: 189000 M⁻¹ s⁻¹
